He/Con_2aH, He/Con_2b and Ho/Con_1a data for 19 molecules are collected here from patent US20180155451A1 (published 2018).

One assay concerns the target T1, FcγRIIa H (human, UniProt P12318 34-217).
T1 construct: extracellular domain; also called FcgRIIa H; FcγRIIa type H; not shown: His tag attached to the C terminus
T1 sequence (looked up): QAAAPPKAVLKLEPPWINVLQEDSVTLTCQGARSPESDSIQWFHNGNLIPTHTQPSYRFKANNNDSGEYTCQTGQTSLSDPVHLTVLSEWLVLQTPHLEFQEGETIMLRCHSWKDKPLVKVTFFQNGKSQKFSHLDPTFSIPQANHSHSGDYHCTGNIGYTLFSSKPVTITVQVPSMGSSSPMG
The assay is described as follows: SPR (Biacore), antibody captured, FcγR as analyte; binding relative to GpH7-A5/GpH7-B3/GpL16-k0 = 100.

Another assay deals with T2, FcγRIIb (human, UniProt P31994 43-217).
T2 construct: extracellular domain; also called FcgRIIb; 2b; not shown: His tag attached to the C terminus
T2 sequence (looked up): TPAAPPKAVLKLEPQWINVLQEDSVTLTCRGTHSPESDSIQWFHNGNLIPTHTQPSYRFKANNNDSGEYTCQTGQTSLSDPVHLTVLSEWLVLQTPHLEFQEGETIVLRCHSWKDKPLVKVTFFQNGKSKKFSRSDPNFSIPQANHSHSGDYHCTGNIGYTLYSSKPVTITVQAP
The description is as above.

The target in assay [1] is T3, FcγRIa extracellular domain with C-terminal His tag (human, UniProt P12314 16-292).
T3 construct: extracellular domain; Expressed in FreeStyle293 cells; analyte in Biacore; also called FcgRI; FcgRIa
Put plainly: SPR Biacore, antibody captured, FcγRIa analyte; vs GpH7-B3/GpL16-k0 = 100. (Surface plasmon resonance follows binding to a sensor surface in real time, without labels.)

T3 sequence (P12314 16-292): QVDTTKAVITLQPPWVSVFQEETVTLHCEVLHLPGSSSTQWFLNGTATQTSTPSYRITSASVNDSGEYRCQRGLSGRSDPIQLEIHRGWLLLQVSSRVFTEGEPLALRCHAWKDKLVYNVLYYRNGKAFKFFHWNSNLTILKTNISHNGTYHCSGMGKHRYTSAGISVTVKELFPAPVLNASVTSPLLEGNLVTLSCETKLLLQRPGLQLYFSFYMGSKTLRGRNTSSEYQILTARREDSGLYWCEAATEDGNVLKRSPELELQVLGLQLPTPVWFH

B1: GpH7-A5/GpH7-B3 variant S324_16H/GpL16-k0 (antibody, human IgG1, kappa)
heavy 1: not shown
heavy 2: not shown
light: DIVMTQSPLSLPVTPGEPASISCQASESLVHSNRNTYLHWYLQKPGQSPQLLIYKVSNRFSGVPDRFSGSGSGTDFTLKISRVEAEDVGVYYCSQNTHVPPTFGQGTKVEIERTVAAPSVFIFPPSDEQLKSGTASVVCLLNNFYPREAKVQWKVDNALQSGNSQESVTEQDSKDSTYSLSSTLTLSKADYEKHKVYACEVTHQGLSSPVTKSFNRGEC
notes: Heterodimerized IgG1, mutation in the GpH7-B3 chain only; also called He Ab
In the assay with FcγRIIa H, B1 displayed a He/Con_2aH of 102 control = 100. Besides, the He/Con_2b with FcγRIIb turned out to be 83.5 control = 100.

B2: GpH7-B3 variant P271_02A/GpL16-k0 (Ho Ab) (antibody, human IgG1, kappa)
heavy: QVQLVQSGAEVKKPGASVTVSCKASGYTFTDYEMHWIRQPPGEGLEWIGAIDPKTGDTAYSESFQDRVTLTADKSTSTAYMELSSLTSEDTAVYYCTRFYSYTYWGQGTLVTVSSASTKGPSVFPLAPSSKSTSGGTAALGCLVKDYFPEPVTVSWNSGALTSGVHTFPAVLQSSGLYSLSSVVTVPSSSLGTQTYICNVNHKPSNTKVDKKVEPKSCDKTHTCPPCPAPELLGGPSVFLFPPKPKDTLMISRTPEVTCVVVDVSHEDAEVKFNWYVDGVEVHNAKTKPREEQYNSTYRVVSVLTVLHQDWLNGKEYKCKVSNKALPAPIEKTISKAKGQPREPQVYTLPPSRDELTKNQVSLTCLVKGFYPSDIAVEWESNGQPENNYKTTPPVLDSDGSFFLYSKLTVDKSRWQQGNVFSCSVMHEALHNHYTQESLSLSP
light: B1 light
notes: Ho Ab: alteration in both H chains
Take B2: the Ho/Con_1a in assay [1] is 102 relative (control = 100).

B3: GpH7-A5/GpH7-B3 variant Y300_08L/GpL16-k0 (antibody, human IgG1, kappa)
heavy 1: not shown
heavy 2: not shown
light: B1 light
notes: as for B1
B3 gave a He/Con_2aH with FcγRIIa H of 108 control = 100. This molecule gave a He/Con_2b with FcγRIIb of 73.6 control = 100.

B4: GpH7-A5/GpH7-B3 variant Y300_06M/GpL16-k0 (antibody, human IgG1, kappa)
heavy 1: not shown
heavy 2: not shown
light: B1 light
notes: as for B1
B4: the He/Con_2aH in the assay with FcγRIIa H turned out to be 105 control = 100. In the assay with FcγRIIb, this molecule gave a He/Con_2b of 84.3 control = 100.

B5: GpH7-B3 variant E269_04F/GpL16-k0 (Ho Ab) (antibody, human IgG1, kappa)
heavy: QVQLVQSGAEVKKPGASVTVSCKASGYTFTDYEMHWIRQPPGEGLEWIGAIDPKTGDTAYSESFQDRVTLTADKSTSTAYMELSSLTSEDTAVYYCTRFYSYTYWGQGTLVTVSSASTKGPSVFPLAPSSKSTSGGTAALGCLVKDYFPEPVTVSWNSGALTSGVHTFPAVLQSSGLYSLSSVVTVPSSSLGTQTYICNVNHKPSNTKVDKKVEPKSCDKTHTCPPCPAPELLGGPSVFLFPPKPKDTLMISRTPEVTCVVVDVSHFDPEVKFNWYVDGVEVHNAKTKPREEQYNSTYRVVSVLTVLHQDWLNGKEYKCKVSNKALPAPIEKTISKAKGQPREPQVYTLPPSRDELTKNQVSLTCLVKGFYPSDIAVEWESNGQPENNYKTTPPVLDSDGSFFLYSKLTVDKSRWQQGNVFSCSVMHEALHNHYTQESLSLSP
light: B1 light
notes: as for B2
For B5, the Ho/Con_1a in assay [1] was 102 relative (control = 100).

B6: GpH7-A5/GpH7-B3 variant Y300_07I/GpL16-k0 (antibody, human IgG1, kappa)
heavy 1: not shown
heavy 2: not shown
light: B1 light
notes: as for B1
In the case of B6, the He/Con_2aH with FcγRIIa H came out at 108 control = 100. The same molecule had a He/Con_2b with FcγRIIb of 74.5 control = 100.

B7: GpH7-A5/GpH7-B3 variant Y296_16H/GpL16-k0 (antibody, human IgG1, kappa)
heavy 1: not shown
heavy 2: not shown
light: B1 light
notes: as for B1
For the molecule B7, in the assay with FcγRIIa H, the He/Con_2aH is 104 control = 100. Also, the He/Con_2b with FcγRIIb is 92.2 control = 100.

B8: GpH7-B3 variant A327_09D/GpL16-k0 (Ho Ab) (antibody, human IgG1, kappa)
heavy: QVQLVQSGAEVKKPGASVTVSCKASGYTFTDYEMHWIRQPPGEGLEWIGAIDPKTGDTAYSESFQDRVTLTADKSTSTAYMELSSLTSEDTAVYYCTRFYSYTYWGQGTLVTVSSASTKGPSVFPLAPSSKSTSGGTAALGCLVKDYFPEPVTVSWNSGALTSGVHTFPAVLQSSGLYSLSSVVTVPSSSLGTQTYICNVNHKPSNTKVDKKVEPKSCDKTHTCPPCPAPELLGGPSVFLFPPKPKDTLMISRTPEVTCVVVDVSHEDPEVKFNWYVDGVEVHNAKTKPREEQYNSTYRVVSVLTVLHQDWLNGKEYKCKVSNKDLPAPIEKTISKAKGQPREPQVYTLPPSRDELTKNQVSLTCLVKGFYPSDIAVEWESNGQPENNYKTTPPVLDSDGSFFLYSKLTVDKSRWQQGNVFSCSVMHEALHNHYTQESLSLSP
light: B1 light
notes: as for B2
In the case of B8, in assay [1], the Ho/Con_1a is 102 relative (control = 100).

B9: GpH7-A5/GpH7-B3 variant Y296_09D/GpL16-k0 (antibody, human IgG1, kappa)
heavy 1: not shown
heavy 2: not shown
light: B1 light
notes: as for B1
Consider B9, for which the He/Con_2aH with FcγRIIa H stood at 104 control = 100. In addition, the He/Con_2b with FcγRIIb came to 98.9 control = 100.

B10: GpH7-B3 variant E269_08L/GpL16-k0 (Ho Ab) (antibody, human IgG1, kappa)
heavy: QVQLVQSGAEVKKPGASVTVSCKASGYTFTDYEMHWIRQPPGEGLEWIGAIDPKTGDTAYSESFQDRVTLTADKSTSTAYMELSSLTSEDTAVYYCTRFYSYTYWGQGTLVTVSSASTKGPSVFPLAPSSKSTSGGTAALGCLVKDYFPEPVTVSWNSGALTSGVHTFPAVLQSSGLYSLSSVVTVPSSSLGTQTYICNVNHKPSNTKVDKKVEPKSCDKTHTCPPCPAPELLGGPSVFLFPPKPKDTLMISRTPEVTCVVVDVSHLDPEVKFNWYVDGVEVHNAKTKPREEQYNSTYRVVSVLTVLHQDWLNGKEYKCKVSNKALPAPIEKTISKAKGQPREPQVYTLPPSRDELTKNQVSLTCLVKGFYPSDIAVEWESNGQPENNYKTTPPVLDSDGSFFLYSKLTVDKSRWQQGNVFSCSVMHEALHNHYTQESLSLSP
light: B1 light
notes: as for B2
As to B10, in assay [1], the Ho/Con_1a was 101 relative (control = 100).

B11: GpH7-B3 variant A330_08L/GpL16-k0 (Ho Ab) (antibody, human IgG1, kappa)
heavy: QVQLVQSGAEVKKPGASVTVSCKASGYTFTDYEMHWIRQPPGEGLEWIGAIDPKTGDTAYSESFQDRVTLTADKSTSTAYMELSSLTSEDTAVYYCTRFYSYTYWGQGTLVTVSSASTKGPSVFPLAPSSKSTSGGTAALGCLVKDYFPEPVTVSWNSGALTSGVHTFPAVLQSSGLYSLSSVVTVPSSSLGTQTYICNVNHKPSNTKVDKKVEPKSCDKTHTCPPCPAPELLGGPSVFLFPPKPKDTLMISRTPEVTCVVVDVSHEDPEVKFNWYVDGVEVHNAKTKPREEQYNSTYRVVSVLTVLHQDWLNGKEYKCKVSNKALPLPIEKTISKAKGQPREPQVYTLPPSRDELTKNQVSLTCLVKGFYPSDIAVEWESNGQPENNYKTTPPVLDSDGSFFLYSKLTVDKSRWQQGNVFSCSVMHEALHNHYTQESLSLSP
light: B1 light
notes: Ho Ab: alteration in both H chains; also called GpH7-B3-20-08L/GpL16-k0
Turning to B11, the Ho/Con_1a in assay [1] was 106 relative (control = 100).

B12: GpH7-B3 variant E333_01G/GpL16-k0 (Ho Ab) (antibody, human IgG1, kappa)
heavy: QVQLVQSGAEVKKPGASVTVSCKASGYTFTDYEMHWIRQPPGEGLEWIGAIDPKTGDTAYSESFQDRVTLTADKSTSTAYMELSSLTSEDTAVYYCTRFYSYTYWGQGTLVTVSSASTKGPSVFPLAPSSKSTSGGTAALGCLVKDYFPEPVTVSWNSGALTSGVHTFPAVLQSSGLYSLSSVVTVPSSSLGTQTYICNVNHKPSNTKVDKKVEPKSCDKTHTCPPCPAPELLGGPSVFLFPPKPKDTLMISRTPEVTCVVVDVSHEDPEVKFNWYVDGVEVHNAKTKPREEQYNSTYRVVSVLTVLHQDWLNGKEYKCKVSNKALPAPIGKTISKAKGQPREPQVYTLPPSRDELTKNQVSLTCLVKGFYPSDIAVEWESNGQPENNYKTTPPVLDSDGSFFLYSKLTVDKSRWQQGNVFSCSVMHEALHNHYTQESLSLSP
light: B1 light
notes: as for B2
For B12, in assay [1], the Ho/Con_1a was 100 relative (control = 100).

B13: GpH7-A5/GpH7-B3 variant Y296_04F/GpL16-k0 (antibody, human IgG1, kappa)
heavy 1: not shown
heavy 2: not shown
light: B1 light
notes: as for B1
For the molecule B13, in the assay with FcγRIIa H, the He/Con_2aH came out at 100 control = 100. In the assay with FcγRIIb, the He/Con_2b amounted to 99.2 control = 100.

B14: GpH7-A5/GpH7-B3 variant S324_20W/GpL16-k0 (antibody, human IgG1, kappa)
heavy 1: not shown
heavy 2: not shown
light: B1 light
notes: as for B1
Regarding B14, the He/Con_2aH in the assay with FcγRIIa H stood at 103 control = 100. The molecule also returned a He/Con_2b with FcγRIIb of 87.5 control = 100.

B15: GpH7-B3 variant A330_09D/GpL16-k0 (Ho Ab) (antibody, human IgG1, kappa)
heavy: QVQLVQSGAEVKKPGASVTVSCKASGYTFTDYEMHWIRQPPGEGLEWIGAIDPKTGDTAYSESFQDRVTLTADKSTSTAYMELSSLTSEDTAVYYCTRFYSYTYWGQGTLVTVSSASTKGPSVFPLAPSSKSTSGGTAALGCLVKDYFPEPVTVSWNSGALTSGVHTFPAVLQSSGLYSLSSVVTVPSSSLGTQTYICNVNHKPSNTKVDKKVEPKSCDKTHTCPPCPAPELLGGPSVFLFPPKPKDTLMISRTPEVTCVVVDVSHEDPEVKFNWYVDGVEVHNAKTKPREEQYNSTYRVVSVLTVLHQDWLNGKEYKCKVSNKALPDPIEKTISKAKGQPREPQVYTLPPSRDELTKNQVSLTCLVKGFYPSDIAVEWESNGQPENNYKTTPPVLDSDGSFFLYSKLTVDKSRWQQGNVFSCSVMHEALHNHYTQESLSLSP
light: B1 light
notes: as for B2
Consider B15, for which the Ho/Con_1a in assay [1] was 108 relative (control = 100).

B16: GpH7-A5/GpH7-B3 variant Y296_18N/GpL16-k0 (antibody, human IgG1, kappa)
heavy 1: not shown
heavy 2: not shown
light: B1 light
notes: as for B1
On to B16, for which the He/Con_2aH in the assay with FcγRIIa H was determined as 104 control = 100. For the same molecule, in the assay with FcγRIIb, the He/Con_2b was determined as 91.5 control = 100.

B17: GpH7-B3 variant E269_15Y/GpL16-k0 (Ho Ab) (antibody, human IgG1, kappa)
heavy: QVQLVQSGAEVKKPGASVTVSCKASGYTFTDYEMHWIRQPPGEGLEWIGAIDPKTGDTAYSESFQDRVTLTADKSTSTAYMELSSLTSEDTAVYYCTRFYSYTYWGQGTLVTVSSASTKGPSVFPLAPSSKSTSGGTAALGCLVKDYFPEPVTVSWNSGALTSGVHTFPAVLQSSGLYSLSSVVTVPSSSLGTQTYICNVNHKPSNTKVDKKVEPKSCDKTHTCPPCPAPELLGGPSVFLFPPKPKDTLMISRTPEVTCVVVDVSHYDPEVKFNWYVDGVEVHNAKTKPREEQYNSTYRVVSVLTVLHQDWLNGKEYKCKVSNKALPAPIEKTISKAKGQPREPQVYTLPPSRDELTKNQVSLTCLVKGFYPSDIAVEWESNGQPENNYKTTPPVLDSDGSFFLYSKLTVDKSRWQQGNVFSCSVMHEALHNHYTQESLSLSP
light: B1 light
notes: as for B2
For B17, the Ho/Con_1a in assay [1] was 100 relative (control = 100).

B18: GpH7-B3 variant E269_06M/GpL16-k0 (Ho Ab) (antibody, human IgG1, kappa)
heavy: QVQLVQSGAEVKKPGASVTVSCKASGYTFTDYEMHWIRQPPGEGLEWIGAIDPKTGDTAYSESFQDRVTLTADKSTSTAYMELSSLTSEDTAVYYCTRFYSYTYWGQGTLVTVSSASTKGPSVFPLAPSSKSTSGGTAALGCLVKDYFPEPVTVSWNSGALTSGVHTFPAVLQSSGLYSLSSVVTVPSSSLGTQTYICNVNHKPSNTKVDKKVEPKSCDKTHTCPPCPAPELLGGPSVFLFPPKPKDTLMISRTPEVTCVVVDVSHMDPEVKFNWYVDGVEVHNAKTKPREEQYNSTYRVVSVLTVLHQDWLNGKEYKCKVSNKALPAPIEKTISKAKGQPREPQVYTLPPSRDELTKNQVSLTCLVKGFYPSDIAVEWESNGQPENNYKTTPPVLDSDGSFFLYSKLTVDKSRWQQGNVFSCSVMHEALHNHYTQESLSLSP
light: B1 light
notes: as for B2
Consider B18, for which the Ho/Con_1a in assay [1] is 101 relative (control = 100).

B19: GpH7-B3 variant A330_14T/GpL16-k0 (Ho Ab) (antibody, human IgG1, kappa)
heavy: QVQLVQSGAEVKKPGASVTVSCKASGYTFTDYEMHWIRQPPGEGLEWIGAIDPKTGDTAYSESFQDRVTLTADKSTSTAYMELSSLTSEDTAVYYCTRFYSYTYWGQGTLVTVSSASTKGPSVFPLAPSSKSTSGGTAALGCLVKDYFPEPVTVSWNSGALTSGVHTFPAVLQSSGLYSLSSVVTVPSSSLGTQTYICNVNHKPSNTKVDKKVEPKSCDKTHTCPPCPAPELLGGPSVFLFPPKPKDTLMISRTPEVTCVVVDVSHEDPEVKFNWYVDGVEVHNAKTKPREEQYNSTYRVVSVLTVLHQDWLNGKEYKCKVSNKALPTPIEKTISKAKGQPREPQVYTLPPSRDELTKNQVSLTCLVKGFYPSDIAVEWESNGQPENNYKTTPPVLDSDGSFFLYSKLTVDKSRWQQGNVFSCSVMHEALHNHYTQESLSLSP
light: B1 light
notes: as for B2
Consider B19, for which the Ho/Con_1a in assay [1] is 105 relative (control = 100).
